B1: NHERF1 PDZ2-CT E353A 150-358 (protein)
chain: LRPRLCTMKKGPSGYGFNLHSDKSKPGQFIRSVDPDSPAEASGLRAQDRIVEVNGVCMEGKQHGDVVSAIRAGGDETKLLVVDRETDEFFKKCRVIPSQEHLNGPLPVPFTNGEIQKENSREALAEAALESPRPALVRSASSDTSEELNSQDSPPKQDSTAPSSTSSSDPILDFNISLAMAKERAHQKRSSKRAPQMDWSKKNALFSNL
B2: NHERF1 PDZ2-CT L358D 150-358 (protein)
chain: LRPRLCTMKKGPSGYGFNLHSDKSKPGQFIRSVDPDSPAEASGLRAQDRIVEVNGVCMEGKQHGDVVSAIRAGGDETKLLVVDRETDEFFKKCRVIPSQEHLNGPLPVPFTNGEIQKENSREALAEAALESPRPALVRSASSDTSEELNSQDSPPKQDSTAPSSTSSSDPILDFNISLAMAKERAHQKRSSKRAPQMDWSKKNELFSND
B3: NHERF1 PDZ2-CT 150-358 (protein)
chain: LRPRLCTMKKGPSGYGFNLHSDKSKPGQFIRSVDPDSPAEASGLRAQDRIVEVNGVCMEGKQHGDVVSAIRAGGDETKLLVVDRETDEFFKKCRVIPSQEHLNGPLPVPFTNGEIQKENSREALAEAALESPRPALVRSASSDTSEELNSQDSPPKQDSTAPSSTSSSDPILDFNISLAMAKERAHQKRSSKRAPQMDWSKKNELFSNL
B4: NHERF1 PDZ2-CT E353P 150-358 (protein)
chain: LRPRLCTMKKGPSGYGFNLHSDKSKPGQFIRSVDPDSPAEASGLRAQDRIVEVNGVCMEGKQHGDVVSAIRAGGDETKLLVVDRETDEFFKKCRVIPSQEHLNGPLPVPFTNGEIQKENSREALAEAALESPRPALVRSASSDTSEELNSQDSPPKQDSTAPSSTSSSDPILDFNISLAMAKERAHQKRSSKRAPQMDWSKKNPLFSNL

In this assay the target is C-CFTR 1411-1480 (Homo sapiens, UniProt P13569). In words: SPR.
C-CFTR 1411-1480, sequence (P13569 1411-1480): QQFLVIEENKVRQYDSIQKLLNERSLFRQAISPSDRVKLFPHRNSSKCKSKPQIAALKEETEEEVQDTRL
With B1, the Kd was 2500 nM. Under B2 stands 1600 nM; under B3, 2000 nM; under B4, 480 nM.
